According to paper PMC4293355 (Developmental cell, 2014):

Biological target: G-actin (UniProt P68135 1-377)
Assay: fluorescence polarisation

B1: TMR-SpWsp1(VCA) (domain or fragment)
chain: QDGRANLMASIRASGGMDLLKSRKVSASPSVASTKTSNPPVEAPPSNNLMDALASALNQRKTKVAQSDEEDEDDDEWD
modifications: TMR-labeled (position not given)
Binder B1 has a Kd of ~21 nM.
